Measured values published in patent publication CN116284426A (SUNSHINE GUOJIAN PHARMACEUTICAL SHANGHAI CO LTD, dated 2023).

Legend:
[1] = target: T1, CD3ε-ECD-his (UniProt P07766 23-126); assay: ELISA, CD3ε-ECD-his coated; reference SP34
T1 construct: extracellular domain; also called CD3ε蛋白

[2] = target: T2, GUCY2C-Fc蛋白 (human GUCY2C extracellular region fused to human IgG1 Fc) (human, UniProt P25092 24-430); assay: ELISA, GUCY2C-Fc coated, anti-human IgG Fab HRP (Table 18)
T2 construct: extracellular domain; Made in HEK-293F with an unspecified N-terminal signal peptide; also called 人GUCY2C-Fc蛋白; not shown: human IgG1 Fc at the C-terminus in place of the 6xHis tag
T2 sequence (P25092 24-430 limits assumed): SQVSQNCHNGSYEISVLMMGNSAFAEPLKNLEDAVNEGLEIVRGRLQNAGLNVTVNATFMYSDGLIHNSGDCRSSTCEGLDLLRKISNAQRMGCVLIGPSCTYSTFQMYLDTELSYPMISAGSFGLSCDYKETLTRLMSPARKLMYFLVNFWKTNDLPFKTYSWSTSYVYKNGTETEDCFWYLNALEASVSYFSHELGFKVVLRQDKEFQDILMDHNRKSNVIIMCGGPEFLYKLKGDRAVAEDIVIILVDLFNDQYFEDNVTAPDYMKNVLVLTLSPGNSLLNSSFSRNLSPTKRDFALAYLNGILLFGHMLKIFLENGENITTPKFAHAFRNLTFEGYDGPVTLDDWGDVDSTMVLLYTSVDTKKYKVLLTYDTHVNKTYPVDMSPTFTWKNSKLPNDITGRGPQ

[3] = target: T3, GUCY2C-His蛋白 (human GUCY2C extracellular region with C-terminal 6xHis) (human, UniProt P25092 24-430); assay: ELISA, GUCY2C-His coated, anti-human IgG Fab HRP (Table 17)
T3 construct: extracellular domain; Made in HEK-293F with an unspecified N-terminal signal peptide; also called 人GUCY2C-His蛋白
T3 sequence (P25092 other isoform, or with tags, fused parts or gaps): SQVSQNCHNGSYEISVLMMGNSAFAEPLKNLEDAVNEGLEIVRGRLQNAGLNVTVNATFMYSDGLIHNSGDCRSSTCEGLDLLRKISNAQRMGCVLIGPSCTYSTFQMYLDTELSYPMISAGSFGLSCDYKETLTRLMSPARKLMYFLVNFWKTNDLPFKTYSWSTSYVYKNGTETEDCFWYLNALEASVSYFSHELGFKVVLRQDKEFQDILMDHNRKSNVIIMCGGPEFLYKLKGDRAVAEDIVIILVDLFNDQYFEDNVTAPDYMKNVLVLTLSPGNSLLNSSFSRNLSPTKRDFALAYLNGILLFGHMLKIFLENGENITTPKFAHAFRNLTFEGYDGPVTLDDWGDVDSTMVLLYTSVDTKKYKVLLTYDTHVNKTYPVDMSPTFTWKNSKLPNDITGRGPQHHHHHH

[4] = target: GUCY2C on tumour cells (CW2, CW2-GCC#1, T84) (human, UniProt P25092 24-1073); assay: cell-based or functional assay
Sequence of GUCY2C on tumour cells (CW2, CW2-GCC#1, T84) (P25092 24-1073): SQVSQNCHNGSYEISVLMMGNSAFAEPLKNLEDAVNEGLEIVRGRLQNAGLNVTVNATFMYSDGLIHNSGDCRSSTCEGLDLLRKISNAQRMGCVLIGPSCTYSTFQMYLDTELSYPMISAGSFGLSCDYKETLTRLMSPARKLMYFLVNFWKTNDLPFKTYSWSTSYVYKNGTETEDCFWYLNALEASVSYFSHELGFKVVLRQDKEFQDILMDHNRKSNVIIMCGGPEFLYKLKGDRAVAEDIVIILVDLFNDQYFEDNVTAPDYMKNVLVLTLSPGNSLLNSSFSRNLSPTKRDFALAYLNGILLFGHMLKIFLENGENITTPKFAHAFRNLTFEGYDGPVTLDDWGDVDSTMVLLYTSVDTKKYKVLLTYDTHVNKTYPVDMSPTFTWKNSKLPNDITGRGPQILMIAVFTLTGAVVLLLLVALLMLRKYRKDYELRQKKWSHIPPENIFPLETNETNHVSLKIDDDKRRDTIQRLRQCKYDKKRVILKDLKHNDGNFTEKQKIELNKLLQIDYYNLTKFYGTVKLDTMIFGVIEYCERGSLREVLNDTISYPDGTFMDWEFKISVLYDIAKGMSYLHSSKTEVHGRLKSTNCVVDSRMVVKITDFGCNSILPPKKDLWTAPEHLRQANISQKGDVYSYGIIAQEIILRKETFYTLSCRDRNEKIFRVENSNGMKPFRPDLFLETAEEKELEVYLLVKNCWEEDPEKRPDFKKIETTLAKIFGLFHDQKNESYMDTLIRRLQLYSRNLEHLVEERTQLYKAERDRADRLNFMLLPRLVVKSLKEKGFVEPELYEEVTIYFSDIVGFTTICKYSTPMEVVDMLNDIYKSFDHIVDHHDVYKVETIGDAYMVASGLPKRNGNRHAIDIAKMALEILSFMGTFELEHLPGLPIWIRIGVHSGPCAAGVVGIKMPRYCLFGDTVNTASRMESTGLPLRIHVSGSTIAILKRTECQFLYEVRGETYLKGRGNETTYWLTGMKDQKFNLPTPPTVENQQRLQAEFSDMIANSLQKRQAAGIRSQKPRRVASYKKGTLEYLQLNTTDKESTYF

[5] = target: T1, CD3ε-ECD-his; assay: ELISA, CD3ε-ECD-his coated at 1 ug/mL (Table 19)
[6] = target: T3, GUCY2C-His蛋白 (human GUCY2C …); assay: ELISA, GUCY2C-His coated, anti-human IgG Fab HRP (Table 10)
[7] = target: T2, GUCY2C-Fc蛋白 (human GUCY2C extracellular …); assay: ELISA, GUCY2C-Fc coated, anti-human IgG Fab HRP (Table 12)
[8] = target: T1, CD3ε-ECD-his; assay: ELISA, CD3ε-ECD-his coated at 1 ug/mL, anti-human IgG Fab HRP (Table 14)

T1 sequence (P07766 other isoform, or with tags, fused parts or gaps): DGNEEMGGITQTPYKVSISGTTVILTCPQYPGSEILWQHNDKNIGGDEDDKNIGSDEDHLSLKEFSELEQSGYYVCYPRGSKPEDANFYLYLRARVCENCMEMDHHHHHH

Row | Binder | fold weaker affinity than SP34 [1] [fold] | EC50 [2] [nM] | EC50 [3] [nM] | EC50 [5] [nM] | EC50 [6] [nM] | EC50 [7] [nM] | EC50 [8] [nM] | IC50 of T-cell-mediated killing of T84 cells [4] [nM]
1 | 32H2CH1-SP4VHL-hik (bispecific antibody, human IgG1, kappa, also called 结构8) heavy 1: EVQLVESGGGLVKPGGSLRLSCAASGFSFRTYAMSWVRQAPGKSLEWVATISSGSSYIYYPDSVKGRFTVSRDNAKNSLYLQMNSLRAEDTAVYYCTCYRMETFEYWGQGTLVTVSSASTKGPSVFPLAPSSKSTSGGTAALGCLVKDYFPEPVTVSWNSGALTSGVHTFPAVLQSSGLYSLSSVVTVPSSSLGTQTYICNVNHKPSNTKVDKKVEPKSCGGGGSGGGGSGGGGSEVQLVESGGGLVQPGGSLRLSCAASGFTFNTYAMNWVRQAPGKGLEWVARIRSKYNNYATYYADSVKDRFTISRDDSKNTLYLQMNSLRAEDTAVYYCVRHGNFGNSYVSWFAYWGQGTLVTVSSGGGGSGGGGSGGGGSGGGGSQAVVTQEPSLTVSPGGTVTLTCRSSTGAVTTSNYANWVQQKPGQAPRGLIGGTNKRAPGVPARFSGSLLGGKAALTLSGAQPEDEAEYYCALWYSNLWVFGQGTKVEIKGGGSDKTHTCPPCPAPELLGGPSVFLFPPKPKDTLMISRTPEVTCVVVDVSHEDPEVKFNWYVDGVEVHNAKTKPREEQYNSTYRVVSVLTVLHQDWLNGKEYKCKVSNKALPAPIEKTISKAKGQPREPQVYTLPPCREEMTKNQVSLSCAVKGFYPSDIAVEWESNGQPENNYKTTPPVLDSDGSFFLVSKLTVDKSRWQQGNVFSCSVMHEALHNHYTQKSLSLSPGK heavy 2: not shown light: DVVMTQSPLSLPVTLGQPASISCRSSQSLVYNNGNTYLHWYQQRPGQSPRLLIYKVSNRFSGVPDRFSGSGSGTDFTLKISRVEAEDVGVYFCSQSTHVPLTFGQGTKVEIKRTVAAPSVFIFPPSDEQLKSGTASVVCLLNNFYPREAKVQWKVDNALQSGNSQESVTEQDSKDSTYSLSSTLTLSKADYEKHKVYACEVTHQGLSSPVTKSFNRGEC | ~10 | 0.869 | 0.428 | 1.92 | – | – | – | 0.002
2 | 32H2-SP4VHL (bispecific antibody, human IgG1, kappa, also called 结构1) heavy: not shown light: DVVMTQSPLSLPVTLGQPASISCRSSQSLVYNNGNTYLHWYQQRPGQSPRLLIYKVSNRFSGVPDRFSGSGSGTDFTLKISRVEAEDVGVYFCSQSTHVPLTFGQGTKVEIKRTVAAPSVFIFPPSDEQLKSGTASVVCLLNNFYPREAKVQWKVDNALQSGNSQESVTEQDSKDSTYSLSSTLTLSKADYEKHKVYACEVTHQGLSSPVTKSFNRGEC | – | – | – | – | 0.26 | 0.29 | 0.3 | –
3 | SP4VHL-32H2-L (bispecific antibody, human IgG1, kappa, also called 结构18) heavy: not shown light: EVQLVESGGGLVQPGGSLRLSCAASGFTFNTYAMNWVRQAPGKGLEWVARIRSKYNNYATYYADSVKDRFTISRDDSKNTLYLQMNSLRAEDTAVYYCVRHGNFGNSYVSWFAYWGQGTLVTVSSGGGGSGGGGSGGGGSGGGGSQAVVTQEPSLTVSPGGTVTLTCRSSTGAVTTSNYANWVQQKPGQAPRGLIGGTNKRAPGVPARFSGSLLGGKAALTLSGAQPEDEAEYYCALWYSNLWVFGQGTKVEIKGGGGSGGGGSGGGGSDVVMTQSPLSLPVTLGQPASISCRSSQSLVYNNGNTYLHWYQQRPGQSPRLLIYKVSNRFSGVPDRFSGSGSGTDFTLKISRVEAEDVGVYFCSQSTHVPLTFGQGTKVEIKRTVAAPSVFIFPPSDEQLKSGTASVVCLLNNFYPREAKVQWKVDNALQSGNSQESVTEQDSKDSTYSLSSTLTLSKADYEKHKVYACEVTHQGLSSPVTKSFNRGEC | – | – | – | – | 1.21 | 0.78 | 1.16 | –
4 | SP4VHL-32H2-KIH (bispecific antibody) chain 1: not shown chain 2: EVQLVESGGGLVKPGGSLRLSCAASGFSFRTYAMSWVRQAPGKSLEWVATISSGSSYIYYPDSVKGRFTVSRDNAKNSLYLQMNSLRAEDTAVYYCTCYRMETFEYWGQGTLVTVSSASTKGPSVFPLAPSSKSTSGGTAALGCLVKDYFPEPVTVSWNSGALTSGVHTFPAVLQSSGLYSLSSVVTVPSSSLGTQTYICNVNHKPSNTKVDKKVEPKSCDKTHTCPPCPAPELLGGPSVFLFPPKPKDTLMISRTPEVTCVVVDVSHEDPEVKFNWYVDGVEVHNAKTKPREEQYNSTYRVVSVLTVLHQDWLNGKEYKCKVSNKALPAPIEKTISKAKGQPREPQVYTLPPCREEMTKNQVSLSCAVKGFYPSDIAVEWESNGQPENNYKTTPPVLDSDGSFFLVSKLTVDKSRWQQGNVFSCSVMHEALHNHYTQKSLSLSPGK chain 3: DVVMTQSPLSLPVTLGQPASISCRSSQSLVYNNGNTYLHWYQQRPGQSPRLLIYKVSNRFSGVPDRFSGSGSGTDFTLKISRVEAEDVGVYFCSQSTHVPLTFGQGTKVEIKRTVAAPSVFIFPPSDEQLKSGTASVVCLLNNFYPREAKVQWKVDNALQSGNSQESVTEQDSKDSTYSLSSTLTLSKADYEKHKVYACEVTHQGLSSPVTKSFNRGEC | ~10 | 0.752 | 0.405 | 2.37 | – | – | – | –

The next lines start with results.

Row | fold weaker affinity than SP34 [1] [fold] | EC50 [2] [nM] | EC50 [3] [nM] | EC50 [5] [nM] | EC50 [6] [nM] | EC50 [7] [nM] | EC50 [8] [nM] | Binder | IC50 of T-cell-mediated killing of T84 cells [4] [nM]
5 | ~10 | 1.08 | 0.733 | 4.02 | – | – | – | SP4VHL-32H2-hik (bispecific antibody) chain 1: EVQLVESGGGLVQPGGSLRLSCAASGFTFNTYAMNWVRQAPGKGLEWVARIRSKYNNYATYYADSVKDRFTISRDDSKNTLYLQMNSLRAEDTAVYYCVRHGNFGNSYVSWFAYWGQGTLVTVSSGGGGSGGGGSGGGGSGGGGSQAVVTQEPSLTVSPGGTVTLTCRSSTGAVTTSNYANWVQQKPGQAPRGLIGGTNKRAPGVPARFSGSLLGGKAALTLSGAQPEDEAEYYCALWYSNLWVFGQGTKVEIKGGGGSGGGGSGGGGSEVQLVESGGGLVKPGGSLRLSCAASGFSFRTYAMSWVRQAPGKSLEWVATISSGSSYIYYPDSVKGRFTVSRDNAKNSLYLQMNSLRAEDTAVYYCTCYRMETFEYWGQGTLVTVSSASTKGPSVFPLAPSSKSTSGGTAALGCLVKDYFPEPVTVSWNSGALTSGVHTFPAVLQSSGLYSLSSVVTVPSSSLGTQTYICNVNHKPSNTKVDKKVEPKSCDKTHTCPPCPAPELLGGPSVFLFPPKPKDTLMISRTPEVTCVVVDVSHEDPEVKFNWYVDGVEVHNAKTKPREEQYNSTYRVVSVLTVLHQDWLNGKEYKCKVSNKALPAPIEKTISKAKGQPREPQVYTLPPCREEMTKNQVSLSCAVKGFYPSDIAVEWESNGQPENNYKTTPPVLDSDGSFFLVSKLTVDKSRWQQGNVFSCSVMHEALHNHYTQKSLSLSPGK chain 2: not shown chain 3: DVVMTQSPLSLPVTLGQPASISCRSSQSLVYNNGNTYLHWYQQRPGQSPRLLIYKVSNRFSGVPDRFSGSGSGTDFTLKISRVEAEDVGVYFCSQSTHVPLTFGQGTKVEIKRTVAAPSVFIFPPSDEQLKSGTASVVCLLNNFYPREAKVQWKVDNALQSGNSQESVTEQDSKDSTYSLSSTLTLSKADYEKHKVYACEVTHQGLSSPVTKSFNRGEC | –
6 | – | – | – | 0.154 | – | – | – | SP34 (humanized anti-CD3 monoclonal antibody) (antibody, human IgG1, kappa, V domains shown, Full-length humanized IgG1/kappa made in HEK293F and purified on Protein A; also called SP34-HC/SP34-LC) VH: EVQLVESGGGLVQPGGSLRLSCAASGFTFNTYAMNWVRQAPGKGLEWVARIRSKYNNYATYYADSVKDRFTISRDDSKNTLYLQMNSLRAEDTAVYYCVRHGNFGNSYVSWFAYWGQGTLVTVSS VL: QAVVTQEPSLTVSPGGTVTLTCRSSTGAVTTSNYANWVQQKPGQAPRGLIGGTNKRAPGVPARFSGSLLGGKAALTLSGAQPEDEAEYYCALWYSNLWVFGQGTKVEIKR | –
